This assay has as its target IL-6. The assay can be described thus: cell-based or functional assay.

IL-6, sequence (P05231 30-212): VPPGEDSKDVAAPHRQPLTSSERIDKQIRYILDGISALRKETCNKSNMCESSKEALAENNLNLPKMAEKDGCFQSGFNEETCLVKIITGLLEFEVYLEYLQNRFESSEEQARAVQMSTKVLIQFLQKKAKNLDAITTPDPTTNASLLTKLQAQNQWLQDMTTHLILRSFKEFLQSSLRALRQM

B1: human IL-6R-Fc-IL-35 chimeric protein (Fc fusion)
chain 1: ELLDPCGYISPESPVVQLHSNFTAVCVLKEKCMDYFHVNANYIVWKTNHFTIPKEQYTIINRTASSVTFTDIASLNIQLTCNILTFGQLEQNVYGITIISGLPPEKPKNLSCIVNEGKKMRCEWDGGRETHLETNFTLKSEWATHKFADCKAKRDTPTSCTVDYSTVYFVNIEVWVEAENALGKVTSDHINFDPVYKVKPNPPHNLSVINSEELSSILKLTWTNPSIKSVIILKYNIQYRTKDASTWSQIPPEDTASTRSSFTVQDLKPFTEYVFRIRCMKEDGKGYWSDWSEEASGITYEDRPSKAPSFWYKIDPSHTQGYRTVQLVWKTLPPFEANGKILDYEVTLTRWKSHLQNYTVNATKLTVNLTNDRYLATLTVRNLVGKSDAAVLTIPACDFQATHPVMDLKAFPKDNMLWVEWTTPRESVKKYILEWCVLSDKAPCITDWQQEDGTVHRTYLRGNLAESKCYLITVTPVYADGPGSPESIKAYLKQAPPSKGPTVRTKKVGKNEAVLEWDQLPVDVQNGFIRNYTIFYRTIIGNETAVNVDSSHTEYTLSSLTSDTLYMVRMAAYTDEGGKDGPEFTFTTPKFAQGEIEGSGSRKGGKRGSKYGPPCPPCPAPEFLGGPSVFLFPPKPKDQLMISRTPEVTCVVVDVSQEDPEVQFNWYVDGVEVHNAKTKPREEQFNSTYRVVSVLTVLHQDWLSGKEYKCKVSSKGLPSSIEKTISNATGQPREPQVYTLPPSQEEMTKNQVSLTCLVKGFYPSDIAVEWESNGQPENNYKTTPPVLDSDGSFFLYSRLTVDKSRWQEGNVFSCSVLHEALHNHYTQKSLSLSLGKDEGGEDGSGSRNLPVATPDPGMFPCLHHSQNLLRAVSNMLQKARQTLEFYPCTSEEIDHEDITKDKTSTVEACLPLELTKNESCLNSRETSFITNGSCLASRKTSFMMALCLSSIYEDLKMYQVEFKTMNAKLLMDPKRQIFLDQNMLAVIDELMQALNFNSETVPQKSSLEEPDFYKTKIKLCILLHAFRIRAVTIDRVMSYLNAS
chain 2: LAPRRCPAQEVARGVLTSLPGDSVTLTCPGVEPEDNATVHWVLRKPAAGSHPSRWAGMGRRLLLRSVQLHDSGNYSCYRAGRPAGTVHLLVDVPPEEPQLSCFRKSPLSNVVCEWGPRSTPSLTTKAVLLVRKFQNSPAEDFQEPCQYSQESQKFSCQLAVPEGDSSFYIVSMCVASSVGSKFSKTQTFQGCGILQPDPPANITVTAVARNPRWLSVTWQDPHSWNSSFYRLRFELRYRAERSKTFTTWMVKDLQHHCVIHDAWSGLRHVVQLRAQEEFGQGEWSEWSPEAMGTPWTESRSPPAENEVSTPMQALTTNKDDDNILFRDSANATSLPVQDSSSVPLPGSGSDEGGEDGSKYGPPCPPCPAPEFLGGPSVFLFPPKPKDQLMISRTPEVTCVVVDVSQEDPEVQFNWYVDGVEVHNAKTKPREEQFNSTYRVVSVLTVLHQDWLSGKEYKCKVSSKGLPSSIEKTISNATGQPREPQVYTLPPSQEEMTKNQVSLTCLVKGFYPSDIAVEWESNGQPENNYKTTPPVLDSDGSFFLYSRLTVDKSRWQEGNVFSCSVLHEALHNHYTQKSLSLSLGKRKGGKRGSGSRKGPPAALTLPRVQCRASRYPIAVDCSWTLPPAPNSTSPVSFIATYRLGMAARGHSWPCLQQTPTSTSCTITDVQLFSMAPYVLNVTAVHPWGSSSSFVPFITEHIIKPDPPEGVRLSPLAERQLQVQWEPPGSWPFPEIFSLKYWIRYKRQGAARFHRVGPIEATSFILRAVRPRARYYVQVAAQDLTDYGELSDWSLPATATMSLGK
For B1, the “EC50 of induction of apoptosis in IL-6 dependent DS-1 cells cultured 24 hours with IL-6 (caspase 3/7 luciferase assay)” value was found to be 14.1 nM.
